Columns and labels:
Experiment in all cases: co-IP, anti-FLAG, lysate of cells with C-FLAG B3GNT2; mass spectrometry
HNRNPA2B1 = molecular target: T1, HNRNPA2B1 (human, UniProt P22626-2 1-341)
T1 construct: also called NP_002128.1 (+1)
Protocol: (§1) Cells were plated in 10-cm cell culture dishes and grown to 60-80% confluency. For each condition, two biological replicates were harvested for co-IP. Cells were washed with PBS and 4 mL of lysis buffer (20 mM HEPES, 1% Triton X-100, 150 mM NaCl, 1 mM EDTA, and 10% glycerol) containing protease inhibitor cocktail was added. Cells were scraped and lysate was incubated at 4° C. under rotary agitation for 1 h. Lysate was centrifuged at 14,000×g for 10 min at 4° C. Supernatant was transferred to a new tube and an aliquot was taken as the input. […] For Western blots, 10 μg/mL Chicken Anti-FLAG (Aves labs ET-DY100) and IgY control (R&D Systems AB-101-C) antibodies were biotinylated (Thermo Fisher Scientific 90407) and added to the respective conditions. Lysates with antibodies were incubated at 4° C. under rotary agitation overnight. For each mL of lysate, 50 μL of Pierce Protein A/G Magnetic Beads (Mass spectrometry; Thermo Fisher Scientific 88803) or Pierce Streptavidin Magnetic Beads (Western blot; Thermo Fisher Scientific 88817) was washed twice with lysis buffer. Lysates with antibodies were added to the beads and incubated at 4° C. under rotary agitation for 4 h. Beads were washed with lysis buffer 3 times and resuspended in lysis buffer for storage.
(§2) Magnetic beads were resuspended in 100 mM Tris pH 7.8, reduced, alkylated and digested with trypsin at 37° ° C. overnight. This solution was subjected to solid phase extraction to concentrate the peptides and remove unwanted reagents followed by injection onto a Shimadzu HPLC with fraction collector. Eight fractions were collected and after concentration were injected on a Waters NanoAcquity HPLC equipped with a self-packed Aeris 3 μm C18 analytical column 0.075 mm by 20 cm, (Phenomenex). Peptides were eluted using standard reverse-phase gradients. The effluent from the column was analyzed using a Thermo Orbitrap Elite mass spectrometer (nanospray configuration) operated in a data dependent manner for 54 minutes. The resulting fragmentation spectra were correlated against the known database using Proteome Discover 1.4 (Thermo Fisher Scientific).

PRRC2A = molecular target: T2, PRRC2A (human, UniProt P48634 1-2157)
T2 construct: also called NP_004629.3 (+1)
T2 sequence (P48634 whole entry): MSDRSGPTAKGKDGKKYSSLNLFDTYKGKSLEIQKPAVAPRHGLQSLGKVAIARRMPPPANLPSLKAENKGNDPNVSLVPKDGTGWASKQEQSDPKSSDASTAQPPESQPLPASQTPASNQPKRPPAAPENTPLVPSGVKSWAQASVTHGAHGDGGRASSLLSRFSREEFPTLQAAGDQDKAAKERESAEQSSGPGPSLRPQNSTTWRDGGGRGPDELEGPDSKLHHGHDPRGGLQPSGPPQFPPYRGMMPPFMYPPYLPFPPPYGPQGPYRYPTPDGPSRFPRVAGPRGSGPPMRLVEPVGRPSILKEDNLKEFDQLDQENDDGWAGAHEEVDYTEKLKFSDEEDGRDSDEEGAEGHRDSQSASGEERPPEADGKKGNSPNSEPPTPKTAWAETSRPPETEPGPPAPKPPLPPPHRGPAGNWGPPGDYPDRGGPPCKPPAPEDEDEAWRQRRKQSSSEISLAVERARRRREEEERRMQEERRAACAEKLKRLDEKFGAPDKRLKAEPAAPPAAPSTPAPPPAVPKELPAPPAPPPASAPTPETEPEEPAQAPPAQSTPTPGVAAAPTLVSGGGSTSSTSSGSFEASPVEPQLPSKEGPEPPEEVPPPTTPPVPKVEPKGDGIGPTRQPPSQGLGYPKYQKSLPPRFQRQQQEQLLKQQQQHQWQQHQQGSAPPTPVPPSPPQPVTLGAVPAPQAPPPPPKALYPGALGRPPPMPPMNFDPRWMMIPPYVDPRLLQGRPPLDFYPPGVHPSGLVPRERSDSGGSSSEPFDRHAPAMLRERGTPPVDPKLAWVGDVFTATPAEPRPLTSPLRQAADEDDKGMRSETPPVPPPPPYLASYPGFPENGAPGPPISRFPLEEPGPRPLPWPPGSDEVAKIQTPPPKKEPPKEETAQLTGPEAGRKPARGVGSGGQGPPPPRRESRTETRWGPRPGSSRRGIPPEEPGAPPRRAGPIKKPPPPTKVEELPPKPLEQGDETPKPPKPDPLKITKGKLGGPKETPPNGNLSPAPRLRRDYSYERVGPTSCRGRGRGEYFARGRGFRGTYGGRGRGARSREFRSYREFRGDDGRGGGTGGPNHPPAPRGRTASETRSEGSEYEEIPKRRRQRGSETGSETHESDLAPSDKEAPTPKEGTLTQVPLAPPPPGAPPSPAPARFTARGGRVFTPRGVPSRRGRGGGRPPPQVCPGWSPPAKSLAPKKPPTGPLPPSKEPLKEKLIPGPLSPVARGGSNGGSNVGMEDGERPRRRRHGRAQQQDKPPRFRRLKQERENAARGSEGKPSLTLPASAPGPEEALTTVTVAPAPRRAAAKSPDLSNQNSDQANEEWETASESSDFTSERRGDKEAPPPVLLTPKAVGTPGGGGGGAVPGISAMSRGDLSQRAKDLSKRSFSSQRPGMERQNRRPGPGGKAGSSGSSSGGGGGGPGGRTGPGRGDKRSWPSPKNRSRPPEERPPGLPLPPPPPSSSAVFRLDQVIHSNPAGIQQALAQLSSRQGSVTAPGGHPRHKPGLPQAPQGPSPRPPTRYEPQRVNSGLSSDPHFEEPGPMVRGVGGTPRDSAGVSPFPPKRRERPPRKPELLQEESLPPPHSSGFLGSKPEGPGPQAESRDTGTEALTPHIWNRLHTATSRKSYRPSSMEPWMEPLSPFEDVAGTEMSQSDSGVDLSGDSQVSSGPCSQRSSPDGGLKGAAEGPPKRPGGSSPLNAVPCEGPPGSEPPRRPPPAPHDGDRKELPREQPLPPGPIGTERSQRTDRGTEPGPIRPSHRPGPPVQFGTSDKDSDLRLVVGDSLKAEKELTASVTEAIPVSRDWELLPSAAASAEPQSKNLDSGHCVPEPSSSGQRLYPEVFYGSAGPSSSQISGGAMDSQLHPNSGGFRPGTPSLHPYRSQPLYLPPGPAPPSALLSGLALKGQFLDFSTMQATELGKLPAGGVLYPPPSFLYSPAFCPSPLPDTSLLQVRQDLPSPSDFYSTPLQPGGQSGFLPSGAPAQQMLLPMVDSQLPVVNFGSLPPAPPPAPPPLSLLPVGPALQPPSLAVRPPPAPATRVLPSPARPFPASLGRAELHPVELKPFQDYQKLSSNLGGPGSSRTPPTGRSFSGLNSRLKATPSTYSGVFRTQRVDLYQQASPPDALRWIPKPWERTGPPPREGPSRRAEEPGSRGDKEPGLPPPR
Protocol: as §1, §2

FUBP3 = molecular target: T3, FUBP3 (human, UniProt Q96I24 2-572)
T3 construct: also called NP_003925.1 (+2)
T3 sequence (looked up): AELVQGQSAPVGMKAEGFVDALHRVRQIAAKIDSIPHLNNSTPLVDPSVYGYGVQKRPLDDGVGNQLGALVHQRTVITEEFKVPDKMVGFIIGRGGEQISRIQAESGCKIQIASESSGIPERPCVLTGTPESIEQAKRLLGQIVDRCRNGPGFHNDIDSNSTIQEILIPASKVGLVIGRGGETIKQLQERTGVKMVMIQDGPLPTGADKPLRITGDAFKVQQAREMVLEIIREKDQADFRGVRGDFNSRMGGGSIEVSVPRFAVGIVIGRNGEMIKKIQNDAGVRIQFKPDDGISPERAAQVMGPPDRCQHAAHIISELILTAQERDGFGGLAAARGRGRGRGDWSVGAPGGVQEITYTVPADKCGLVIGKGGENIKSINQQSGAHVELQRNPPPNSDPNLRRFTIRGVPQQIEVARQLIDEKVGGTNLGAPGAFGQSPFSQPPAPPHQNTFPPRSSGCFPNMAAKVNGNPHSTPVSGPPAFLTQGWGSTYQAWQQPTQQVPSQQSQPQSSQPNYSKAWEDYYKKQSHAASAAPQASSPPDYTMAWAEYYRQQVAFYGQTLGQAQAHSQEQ
Protocol: as §1, §2

G3BP1 = molecular target: T4, G3BP1 (human, UniProt Q13283 2-466)
T4 construct: also called NP_005745.1
T4 sequence (Q13283 2-466 limits assumed): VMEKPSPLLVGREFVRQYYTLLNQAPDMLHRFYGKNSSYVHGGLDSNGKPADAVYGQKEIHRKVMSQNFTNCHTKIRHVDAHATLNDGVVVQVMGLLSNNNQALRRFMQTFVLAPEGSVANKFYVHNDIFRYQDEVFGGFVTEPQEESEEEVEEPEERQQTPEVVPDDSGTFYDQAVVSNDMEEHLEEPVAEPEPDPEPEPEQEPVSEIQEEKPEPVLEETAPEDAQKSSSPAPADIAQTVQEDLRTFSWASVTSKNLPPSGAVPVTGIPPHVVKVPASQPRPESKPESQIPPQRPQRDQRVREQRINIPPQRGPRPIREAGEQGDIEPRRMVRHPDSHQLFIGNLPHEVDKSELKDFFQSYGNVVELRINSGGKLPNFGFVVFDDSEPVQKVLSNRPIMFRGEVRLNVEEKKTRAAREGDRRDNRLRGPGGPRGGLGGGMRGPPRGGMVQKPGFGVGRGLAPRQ
Protocol: as §1, §2

RBM39 = molecular target: T5, RBM39 (human, UniProt Q14498-3 2-508, limits assumed)
T5 construct: also called NP_001310351.1 (+3)
T5 sequence (looked up): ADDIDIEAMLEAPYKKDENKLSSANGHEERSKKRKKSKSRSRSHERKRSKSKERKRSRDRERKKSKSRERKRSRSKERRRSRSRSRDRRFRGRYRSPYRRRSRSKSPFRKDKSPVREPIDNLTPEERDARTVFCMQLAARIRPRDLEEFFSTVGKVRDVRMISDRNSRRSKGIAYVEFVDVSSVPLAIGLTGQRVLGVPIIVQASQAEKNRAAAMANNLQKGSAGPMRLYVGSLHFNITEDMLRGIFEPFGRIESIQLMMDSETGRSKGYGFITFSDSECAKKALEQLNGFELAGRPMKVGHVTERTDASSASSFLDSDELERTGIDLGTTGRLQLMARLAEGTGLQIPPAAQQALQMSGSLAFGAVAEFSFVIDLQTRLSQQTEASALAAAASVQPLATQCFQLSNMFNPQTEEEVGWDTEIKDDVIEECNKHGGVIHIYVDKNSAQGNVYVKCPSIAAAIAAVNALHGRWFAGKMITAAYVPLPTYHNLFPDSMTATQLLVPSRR
Protocol: as §1, §2

T1 sequence (P22626 other isoform, or with tags, fused parts or gaps limits assumed): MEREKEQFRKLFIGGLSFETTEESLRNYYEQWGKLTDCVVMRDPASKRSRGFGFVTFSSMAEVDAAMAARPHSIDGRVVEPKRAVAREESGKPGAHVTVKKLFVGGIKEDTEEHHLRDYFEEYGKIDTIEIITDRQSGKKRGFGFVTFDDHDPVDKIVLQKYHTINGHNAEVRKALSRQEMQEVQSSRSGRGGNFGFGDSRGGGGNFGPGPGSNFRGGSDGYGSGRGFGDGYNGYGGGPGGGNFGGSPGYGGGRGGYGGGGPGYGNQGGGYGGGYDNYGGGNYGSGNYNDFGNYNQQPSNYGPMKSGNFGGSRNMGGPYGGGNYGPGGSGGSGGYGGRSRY

co-IP mass spectrometry count (HNRNPA2B1): 8
co-IP mass spectrometry count (PRRC2A): 5
co-IP mass spectrometry count (FUBP3): 9
co-IP mass spectrometry count (G3BP1): 33
co-IP mass spectrometry count (RBM39): 5
B1: C-terminal FLAG tagged B3GNT2 (enzyme, human, UniProt Q9NY97 1-397, looked up)
chain: MSVGRRRIKLLGILMMANVFIYFIMEVSKSSSQEKNGKGEVIIPKEKFWKISTPPEAYWNREQEKLNRQYNPILSMLTNQTGEAGRLSNISHLNYCEPDLRVTSVVTGFNNLPDRFKDFLLYLRCRNYSLLIDQPDKCAKKPFLLLAIKSLTPHFARRQAIRESWGQESNAGNQTVVRVFLLGQTPPEDNHPDLSDMLKFESEKHQDILMWNYRDTFFNLSLKEVLFLRWVSTSCPDTEFVFKGDDDVFVNTHHILNYLNSLSKTKAKDLFIGDVIHNAGPHRDKKLKYYIPEVVYSGLYPPYAGGGGFLYSGHLALRLYHITDQVHLYPIDDVYTGMCLQKLGLVPEKHKGFRTFDIEEKNKNNICSYVDLMLVHSRKPQEMIDIWSQLQSAHLKC
notes: Overexpressed in cells and pulled down from the lysate with mouse anti-FLAG antibody; also called C-FLAG B3GNT2; C-term flag; not shown: C-terminal FLAG tag
